Assay: Drug-release assay of nanoparticle-conjugated linker-payloads under cleavage conditions (Cat-B, redox-responsive or pH-sensitive cleaving study), RP-HPLC
Type: in vitro ADME
Conditions: linker-payload conjugated to DBCO-functionalized silica nanoparticle, 37° C., 24 hours
Method: To assess the drug releasing profile of exemplary linker-drug conjugates, the linker-drug conjugates were each conjugated to a DBCO-functionalized ultrasmall silica nanoparticle via a click chemistry reaction between the azide groups on the linker-drug conjugate precursors and the dibenzocyclooctyne (DBCO) groups of the nanoparticles. The resulting drug-nanoparticle-conjugates were then incubated under the desired releasing conditions for release kinetics tests.
The amount of released drugs vs non-released drugs was measured using reverse phase HPLC by analyzing the area under curve (AUC) (FIG. 10A and FIG. 10B).
General Method: A Waters Xbridge Peptide BEH C18 column with 4.6 mm×50 mm dimensions, a particle size of 5 μm, and a pore size of 300 A was used (part number 186003622). Acetonitrile (VWR HiPerSolv Chromanorm, UHPLC Grade) was used as received without further preparation, […] trifluoroacetic acid in deionized water was prepared by adding 1 mL of trifluoroacetic acid (HPLC grade, Millipore-Sigma) into 999 mL 18.2 MΩ·cm deionized water that was generated using an IQ7000 Millipore deionized water system and passed through a 0.2 μm filter before use. The seal wash used for the system was composed of 90% 18.2 MΩ·cm deionized water and 10% methanol (HPLC grade, VWR). The injection needle was washed using a mixture of 25 vol % 18.2 MΩ·cm deionized water, 25 vol % acetonitrile, 25 vol % methanol, and 25 vol % 2-propanol. Samples were prepared in a concentration range of 0.25 to 2 μM and the injection volume ranges from 60 μL to 10 μL, respectively. Higher sample concentration can be used if detector signal is low. Vials used for all injections are fresh Waters Total Recovery vials with screw caps that have pre-slit PTFE septa (part number 186000385C).
Method for Protease-cleavable and Redox-responsive Linkers: Before any sample injections were started, the PDA lamp was turned on and allowed to warm up for at least 30 minutes. The system and column were equilibrated with 95% 0.01% TFA in deionized water, 5% acetonitrile for at least 10 minutes at a flow rate of 1.0 mL/min after the PDA lamp had warmed up. Two blank injections, with injection volumes of 10 μL containing only 18.2 MΩ·cm deionized water, were performed before the injection of any samples for analysis. The gradient used to elute protease-cleavable and redox-sensitive linkers conjugated to hybrid silica nanoparticles, and their components began at 95% 0.01% TFA in deionized water and 5% acetonitrile and linearly changed to 15% 0.01% TFA in deionized water, 85% acetonitrile over 8 minutes. Acetonitrile composition was increased to 95% over an additional minute and held at 95% for an additional 2 minutes to ensure that any strongly retained compounds are eluted. The composition of the solvent was then changed back to the starting composition of the gradient over an additional minute and allowed to equilibrate for 3 minutes before another injection began. Between sample injections a blank injection was run to ensure that no carryover occurred.
Method for pH-sensitive Linkers: Before any sample injections were started, the PDA lamp was turned on and allowed to warm up for at least 30 minutes. A gradient of pure deionized water and acetonitrile was used, all other consumables including column and vials were the same as for the method to purify Cat-B sensitive and redox-responsive linkers elaborated on above. Briefly the gradient composition began at 95% deionized water and 5% acetonitrile at a flow rate of 1.0 mL/min (not changed throughout the method). The composition was changed from this starting composition to 15% deionized water and 85% acetonitrile over a 12-minute period, during which the retained drug-linkers, released drug, free drug linker, and any other impurities eluted. At the 12-minute mark the composition was rapidly changed to 5% deionized water and 95% acetonitrile over the course of one minute. […]

Row | SMILES | % of Payload Release in 24 Hours Under Cleavage Conditions
1 | CCc1c2c(nc3ccc(OCc4ccc(NC(=O)[C@H](CCCNC(N)=O)NC(=O)[C@@H](NC(=O)CCOCCOCCOCCOCCOCCOCCOCCOCCOCCOCCOCCN=[N+]=[N-])C(C)C)cc4)cc13)-c1cc3c(c(=O)n1C2)COC(=O)[C@]3(O)CC [Example 49, 1-azido-N-((S)-1-(((S)-1-((4-((((S)-4,11-diethyl-4-hydroxy-3,14-dioxo-3,4,12,14-tetrahydro-1H-pyrano[3′,4′:6,7]indolizino[1,2-b]quinolin-9-yl)oxy)methyl)phenyl)amino)-1-oxo-5-ureidopentan-2-yl)amino)-3-methyl-1-oxobutan-2-yl)-3,6,9,12,15,18,21,24,27,30,33-undecaoxahexatriacontan-36-amide] | + (‘+’ indicates 5-25% release)
2 | CCc1c2c(nc3ccc(OCCCSSC(C)(C)CNC(=O)CCOCCOCCOCCOCCOCCOCCOCCOCCOCCN=[N+]=[N-])cc13)-c1cc3c(c(=O)n1C2)COC(=O)[C@]3(O)CC [Example 55, (S)-1-Azido-N-(2-((3-((4,11-diethyl-4-hydroxy-3,14-dioxo-3,4,12,14-tetrahydro-1H-pyrano[3′,4′:6,7]indolizino[1,2-b]quinolin-9-yl)oxy)propyl)disulfanyl)-2-methylpropyl)-3,6,9,12,15,18,21,24,27-nonaoxatriacontan-30-amide] | + (‘+’ indicates 5-25% release)
3 | CCc1c2c(nc3ccc(OC(C(=O)N(C)C)c4ccc(NC(=O)[C@H](CCCNC(N)=O)NC(=O)[C@@H](NC(=O)CCOCCOCCOCCOCCOCCOCCOCCOCCOCCN=[N+]=[N-])C(C)C)cc4)cc13)-c1cc3c(c(=O)n1C2)COC(=O)[C@]3(O)CC (stereo partly drawn) [Example 19, 1-azido-N-((2S)-1-(((2S)-1-((4-(1-(((S)-4,11-diethyl-4-hydroxy-3,14-dioxo-3,4,12,14-tetrahydro-1H-pyrano[3′,4′:6,7]indolizino[1,2-b]quinolin-9-yl)oxy)-2-(dimethylamino)-2-oxoethyl)phenyl)amino)-1-oxo-5-ureidopentan-2-yl)amino)-3-methyl-1-oxobutan-2-yl)-3,6,9,12,15,18,21,24,27-nonaoxatriacontan-30-amide] | + (‘+’ indicates 5-25% release)
4 | CC[C@@]1(O)C(=O)OCc2c1cc1n(c2=O)Cc2c-1nc1cc(F)c(C)c3c1c2[C@@H](NCc1c(F)cc(NC(=O)[C@H](CCCNC(N)=O)NC(=O)[C@@H](NC(=O)CCOCCOCCOCCOCCOCCOCCOCCOCCOCCOCCOCCN=[N+]=[N-])C(C)C)cc1F)CC3 [Example 23, 1-azido-N-((S)-1-(((S)-1-((4-((((1S,9S)-9-ethyl-5-fluoro-9-hydroxy-4-methyl-10,13-dioxo-2,3,9,10,13,15-hexahydro-1H,12H-benzo[de]pyrano[3′,4′:6,7]indolizino[1,2-b]quinolin-1-yl)amino)methyl)-3,5-difluorophenyl)amino)-1-oxo-5-ureidopentan-2-yl)amino)-3-methyl-1-oxobutan-2-yl)-3,6,9,12,15,18,21,24,27,30,33-undecaoxahexatriacontan-36-amid] | + (‘+’ indicates 5-25% release)
5 | CCc1c2c(nc3ccc(OCc4ccc(NC(=O)[C@H](CCCNC(N)=O)NC(=O)[C@@H](NC(=O)CCOCCOCCOCCOCCOCCN=[N+]=[N-])C(C)C)cc4)cc13)-c1cc3c(c(=O)n1C2)COC(=O)[C@]3(O)CC [Example 47, 1-azido-N-((S)-1-(((S)-1-((4-((((S)-4,11-diethyl-4-hydroxy-3,14-dioxo-3,4,12,14-tetrahydro-1H-pyrano[3′,4′:6,7]indolizino[1,2-b]quinolin-9-yl)oxy)methyl)phenyl)amino)-1-oxo-5-ureidopentan-2-yl)amino)-3-methyl-1-oxobutan-2-yl)-3,6,9,12,15-pentaoxaoctadecan-18-amide] | + (‘+’ indicates 5-25% release)
6 | CC[C@@]1(O)C(=O)OCc2c1cc1n(c2=O)Cc2c-1nc1cc(F)c(C)c3c1c2[C@@H](NC(=O)OCc1ccc(NC(=O)[C@H](CCCNC(N)=O)NC(=O)[C@@H](NC(=O)CCOCCOCCOCCOCCOCCOCCOCCOCCOCCOCCOCCN=[N+]=[N-])C(C)C)cc1)CC3 [Example 11, 4-((38S,41S)-1-azido-38-isopropyl-36,39-dioxo-41-(3-ureidopropyl)-3,6,9,12,15,18,21,24,27,30,33-undecaoxa-37,40-diazadotetracontan-42-amido)benzyl ((1S,9S)-9-ethyl-5-fluoro-9-hydroxy-4-methyl-10,13-dioxo-2,3,9,10,13,15-hexahydro-1H,12H-benzo[de]pyrano[3′,4′:6,7]indolizino[1,2-b]quinolin-1-yl)carbamate] | +++ (‘+++’ indicates 51-75% release)
7 | CCc1c2c(nc3ccc(OCc4c(F)cc(NC(=O)[C@H](CCCNC(N)=O)NC(=O)[C@@H](NC(=O)CCOCCOCCOCCOCCOCCOCCOCCOCCOCCOCCOCCN=[N+]=[N-])C(C)C)cc4F)cc13)-c1cc3c(c(=O)n1C2)COC(=O)[C@]3(O)CC [Example 22, 1-azido-N-((S)-1-(((S)-1-((4-((((S)-4,11-diethyl-4-hydroxy-3,14-dioxo-3,4,12,14-tetrahydro-1H-pyrano[3′,4′:6,7]indolizino[1,2-b]quinolin-9-yl)oxy)methyl)-3,5-difluorophenyl)amino)-1-oxo-5-ureidopentan-2-yl)amino)-3-methyl-1-oxobutan-2-yl)-3,6,9,12,15,18,21,24,27,30,33-undecaoxahexatriacontan-36-amide] | + (‘+’ indicates 5-25% release)
8 | CC[C@@]1(O)C(=O)OCc2c1cc1n(c2=O)Cc2c-1nc1cc(F)c(C)c3c1c2[C@@H](NC(=O)OCc1ccc(NC(=O)[C@H](CCCNC(N)=O)NC(=O)[C@@H](NC(=O)CCOCCOCCOCCOCCOCCN=[N+]=[N-])C(C)C)cc1)CC3 [Example 9, 4-((20S,23S)-1-azido-20-isopropyl-18,21-dioxo-23-(3-ureidopropyl)-3,6,9,12,15-pentaoxa-19,22-diazatetracosan-24-amido)benzyl ((1S,9S)-9-ethyl-5-fluoro-9-hydroxy-4-methyl-10,13-dioxo-2,3,9,10,13,15-hexahydro-1H,12H-benzo[de]pyrano[3′,4′:6,7]indolizino[1,2-b]quinolin-1-yl)carbamate] | ++++ (‘++++’ indicates 76-100% release)
9 | CCc1c2c(nc3ccc(OC(C(=O)OC)c4ccc(NC(=O)[C@H](CCCNC(N)=O)NC(=O)[C@@H](NC(=O)CCOCCOCCOCCOCCOCCOCCOCCOCCOCCOCCOCCN=[N+]=[N-])C(C)C)cc4)cc13)-c1cc3c(c(=O)n1C2)COC(=O)[C@]3(O)CC (stereo partly drawn) [Example 14-R isomer, Methyl 2-(4-((38S,41S)-1-azido-38-isopropyl-36,39-dioxo-41-(3-ureidopropyl)-3,6,9,12,15,18,21,24,27,30,33-undecaoxa-37,40-diazadotetracontan-42-amido)phenyl)-2-(((S)-4,11-diethyl-4-hydroxy-3,14-dioxo-3,4,12,14-tetrahydro-1H-pyrano[3′,4′:6,7]indolizino[1,2-b]quinolin-9-yl)oxy)acetate] | + (‘+’ indicates 5-25% release)
